We go through five molecules from patent US20090131312A1.

B1: recombinant human MIG (ligand, UniProt Q07325 23-125, looked up)
C-X-C motif chemokine 9: TPVVRKGRCSCISTNQGTIHLQSLKDLKQFAPSPSCEKIEIIATLKNGVQTCLNPDSADVKELIKKWEKQVSQKKKQKNGKKHQKKKVLKVRKSQRSRQKKTT
B2: recombinant human I-TAC (ligand, UniProt O14625 22-94, looked up)
C-X-C motif chemokine 11: FPMFKRGRCLCIGPGVKAVKVADIEKASIMYPSNNCDKIEVIITLKENKGQRCLNPKSKQARLIIKKVERKNF
B3: recombinant human PF4 (ligand, UniProt P02776 32-101, looked up)
Platelet factor 4: EAEEDGDLQCLCVKTTSQVRPRHITSLEVIKAGPHCPTAQLIATLKNGRKICLDLQAPLYKKIIKKLLES

This test addresses human CXCR3 (human) (UniProt P49682). The test is described as follows: cell-based or functional assay.
UniProt P49682, sequence (P49682 whole entry): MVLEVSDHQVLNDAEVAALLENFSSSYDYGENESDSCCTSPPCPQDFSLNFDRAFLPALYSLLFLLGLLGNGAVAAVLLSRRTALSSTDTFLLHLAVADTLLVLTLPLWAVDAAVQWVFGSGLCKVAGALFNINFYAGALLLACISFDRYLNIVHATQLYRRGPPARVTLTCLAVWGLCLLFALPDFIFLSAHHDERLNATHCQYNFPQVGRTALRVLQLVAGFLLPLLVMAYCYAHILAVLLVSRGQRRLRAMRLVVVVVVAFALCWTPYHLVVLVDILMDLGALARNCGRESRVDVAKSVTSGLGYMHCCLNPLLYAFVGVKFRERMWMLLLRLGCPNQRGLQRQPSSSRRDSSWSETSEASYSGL
With recombinant human IP-10 (ligand), the phosphorylated ERK1/2 (immunoblot), fold induction over control levels; HMVEC, 2 min. (fold induction over control) was 0.333; the phosphorylated ERK1/2 (immunoblot), fold induction over control levels; HMVEC, 5 min. (fold induction over control) was determined as 0.07; the phosphorylated ERK1/2 (immunoblot), fold induction over control levels; HMVEC, 15 min. (fold induction over control) worked out at 0.382; the phosphorylated ERK1/2 (immunoblot), fold induction over control levels; HUVEC, 2 min. (fold induction over control) worked out at 10.3. The phosphorylated ERK1/2 (immunoblot), fold induction over control levels; HUVEC, 5 min. (fold induction over control) stood at 10.8; the phosphorylated ERK1/2 (immunoblot), fold induction over control levels; HUVEC, 15 min. (fold induction over control) is 6.87; the phosphorylated ERK1/2 (immunoblot), fold induction over control levels; Pre-B-cells expressing human CXCR3, 2 min. (fold induction over control) turned out to be 1.03; the phosphorylated ERK1/2 (immunoblot), fold induction over control levels; Pre-B-cells expressing human CXCR3, 5 min. (fold induction over control) was found to be 0.921. Further, the phosphorylated ERK1/2 (immunoblot), fold induction over control levels; Pre-B-cells expressing human CXCR3, 15 min. (fold induction over control) amounted to 0.57.

In the case of “native PF4 with native I-TAC N-loop (ligand)”, the phosphorylated ERK1/2 (immunoblot), fold induction over control levels; HMVEC, 2 min. (fold induction over control) is 0.915; the phosphorylated ERK1/2 (immunoblot), fold induction over control levels; HMVEC, 5 min. (fold induction over control) amounted to 1.06; the phosphorylated ERK1/2 (immunoblot), fold induction over control levels; HMVEC, 15 min. (fold induction over control) is 3.28; the phosphorylated ERK1/2 (immunoblot), fold induction over control levels; HUVEC, 2 min. (fold induction over control) worked out at 4.13. Moreover, the phosphorylated ERK1/2 (immunoblot), fold induction over control levels; HUVEC, 5 min. (fold induction over control) turned out to be 5.68; the phosphorylated ERK1/2 (immunoblot), fold induction over control levels; HUVEC, 15 min. (fold induction over control) amounted to 9.83; the phosphorylated ERK1/2 (immunoblot), fold induction over control levels; Pre-B-cells expressing human CXCR3, 2 min. (fold induction over control) is 1.57; the phosphorylated ERK1/2 (immunoblot), fold induction over control levels; Pre-B-cells expressing human CXCR3, 5 min. (fold induction over control) came out at 1.16. Further, the phosphorylated ERK1/2 (immunoblot), fold induction over control levels; Pre-B-cells expressing human CXCR3, 15 min. (fold induction over control) was 0.931.

Consider B1, for which the phosphorylated ERK1/2 (immunoblot), fold induction over control levels; HMVEC, 2 min. (fold induction over control) came to 1.56; the phosphorylated ERK1/2 (immunoblot), fold induction over control levels; HMVEC, 5 min. (fold induction over control) was 1.13; the phosphorylated ERK1/2 (immunoblot), fold induction over control levels; HMVEC, 15 min. (fold induction over control) was 1.31; the phosphorylated ERK1/2 (immunoblot), fold induction over control levels; HUVEC, 2 min. (fold induction over control) came to 5.35. Also, the phosphorylated ERK1/2 (immunoblot), fold induction over control levels; HUVEC, 5 min. (fold induction over control) turned out to be 6.96; the phosphorylated ERK1/2 (immunoblot), fold induction over control levels; HUVEC, 15 min. (fold induction over control) is 5.76; the phosphorylated ERK1/2 (immunoblot), fold induction over control levels; Pre-B-cells expressing human CXCR3, 2 min. (fold induction over control) was 0.795; the phosphorylated ERK1/2 (immunoblot), fold induction over control levels; Pre-B-cells expressing human CXCR3, 5 min. (fold induction over control) worked out at 0.842. Further, the phosphorylated ERK1/2 (immunoblot), fold induction over control levels; Pre-B-cells expressing human CXCR3, 15 min. (fold induction over control) worked out at 1.76.

For B2, the phosphorylated ERK1/2 (immunoblot), fold induction over control levels; HMVEC, 2 min. (fold induction over control) came out at 0.205; the phosphorylated ERK1/2 (immunoblot), fold induction over control levels; HMVEC, 5 min. (fold induction over control) stood at 0.137; the phosphorylated ERK1/2 (immunoblot), fold induction over control levels; HMVEC, 15 min. (fold induction over control) turned out to be 3.08; the phosphorylated ERK1/2 (immunoblot), fold induction over control levels; HUVEC, 2 min. (fold induction over control) was determined as 1.65. Besides, the phosphorylated ERK1/2 (immunoblot), fold induction over control levels; HUVEC, 5 min. (fold induction over control) stood at 1.36; the phosphorylated ERK1/2 (immunoblot), fold induction over control levels; HUVEC, 15 min. (fold induction over control) stood at 1.31; the phosphorylated ERK1/2 (immunoblot), fold induction over control levels; Pre-B-cells expressing human CXCR3, 2 min. (fold induction over control) is 2.24; the phosphorylated ERK1/2 (immunoblot), fold induction over control levels; Pre-B-cells expressing human CXCR3, 5 min. (fold induction over control) was found to be 1.38. Also, the phosphorylated ERK1/2 (immunoblot), fold induction over control levels; Pre-B-cells expressing human CXCR3, 15 min. (fold induction over control) is 1.22.

Take B3: the phosphorylated ERK1/2 (immunoblot), fold induction over control levels; HMVEC, 2 min. (fold induction over control) came to 1.01; the phosphorylated ERK1/2 (immunoblot), fold induction over control levels; HMVEC, 5 min. (fold induction over control) amounted to 0.895; the phosphorylated ERK1/2 (immunoblot), fold induction over control levels; HMVEC, 15 min. (fold induction over control) stood at 1.78; the phosphorylated ERK1/2 (immunoblot), fold induction over control levels; HUVEC, 2 min. (fold induction over control) turned out to be 6.85. The phosphorylated ERK1/2 (immunoblot), fold induction over control levels; HUVEC, 5 min. (fold induction over control) was found to be 9.63; the phosphorylated ERK1/2 (immunoblot), fold induction over control levels; HUVEC, 15 min. (fold induction over control) amounted to 11.5; the phosphorylated ERK1/2 (immunoblot), fold induction over control levels; Pre-B-cells expressing human CXCR3, 2 min. (fold induction over control) is 1.25; the phosphorylated ERK1/2 (immunoblot), fold induction over control levels; Pre-B-cells expressing human CXCR3, 5 min. (fold induction over control) stood at 1.33. Further, the phosphorylated ERK1/2 (immunoblot), fold induction over control levels; Pre-B-cells expressing human CXCR3, 15 min. (fold induction over control) worked out at 1.45.
